Tests used:
[1] = target: T1, human FcγRI on hFcγRI-expressing U937 cells (human, UniProt P12314 16-374); experiment: flow cytometry on U937 cells, NSO supernatant, in the presence of human IgG, Rb anti-PspA or Rb anti-HSA detection
T1 construct: whole, on cells; also called hFcγRI on U937 cells

[2] = target: T2, human FcγRI (hFcγRI), coated on ELISA wells (human, UniProt P12314 16-288); experiment: ELISA, hFcγRI-coated wells, NSO supernatant, Rb anti-PspA or Rb anti-HSA detection
T2 construct: also called CD64
T2 sequence (P12314 16-288 limits assumed): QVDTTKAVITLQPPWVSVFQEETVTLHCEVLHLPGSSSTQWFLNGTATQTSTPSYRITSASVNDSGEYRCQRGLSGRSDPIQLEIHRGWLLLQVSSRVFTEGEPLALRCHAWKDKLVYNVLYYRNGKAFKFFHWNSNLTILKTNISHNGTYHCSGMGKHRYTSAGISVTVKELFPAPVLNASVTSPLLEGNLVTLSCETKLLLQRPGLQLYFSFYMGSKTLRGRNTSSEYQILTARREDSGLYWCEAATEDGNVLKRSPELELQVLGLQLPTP

T1 sequence (P12314 16-374): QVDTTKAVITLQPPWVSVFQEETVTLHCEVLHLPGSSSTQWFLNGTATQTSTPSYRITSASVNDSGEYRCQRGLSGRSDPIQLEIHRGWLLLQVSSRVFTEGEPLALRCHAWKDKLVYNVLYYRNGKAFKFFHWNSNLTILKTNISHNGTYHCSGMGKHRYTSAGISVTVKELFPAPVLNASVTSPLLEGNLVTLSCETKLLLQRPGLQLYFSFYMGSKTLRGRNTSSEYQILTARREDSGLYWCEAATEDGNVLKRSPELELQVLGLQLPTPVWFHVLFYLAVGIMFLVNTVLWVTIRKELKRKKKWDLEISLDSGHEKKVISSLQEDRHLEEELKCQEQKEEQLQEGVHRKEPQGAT

B1: trivalent anti-hFcγRI-PspA fusion protein (other)
chain: DIQLTQSPSSLSASVGDRVTITCKSSQSVLYSSNQKNYLAWYQQKPGKAPKLLIYWASTRESGVPSRFSGSGSGTDFTFTISSLQPEDIATYYCHQYLSSWTFGQGTKVEIKSSGGGGSGGGGSGGGGSEVQLVESGGGVVQPGRSLRLSCSSSGFIFSDNYMYWVRQAPGKGLEWVATISDGGSYTYYPDSVKGRFTISRDNSKNTLFLQMDSLRPEDTGVYFCARGYYRYEGAMDYWGQGTPVTVSSGSTGGGGSTSAGGGGSSDIQLTQSPSSLSASVGDRVTITCKSSQSVLYSSNQKNYLAWYQQKPGKAPKLLIYWASTRESGVPSRFSGSGSGTDFTFTISSLQPEDIATYYCHQYLSSWTFGQGTKVEIKSSGGGGSGGGGSGGGGSEVQLVESGGGVVQPGRSLRLSCSSSGFIFSDNYMYWVRQAPGKGLEWVATISDGGSYTYYPDSVKGRFTISRDNSKNTLFLQMDSLRPEDTGVYFCARGYYRYEGAMDYWGQGTPVTVSSGSTGGGGSTASGGGGSSDIQLTQSPSSLSASVGDRVTITCKSSQSVLYSSNQKNYLAWYQQKPGKAPKLLIYWASTRESGVPSRFSGSGSGTDFTFTISSLQPEDIATYYCHQYLSSWTFGQGTKVEIKSSGGGGSGGGGSGGGGSEVQLVESGGGVVQPGRSLRLSCSSSGFIFSDNYMYWVRQAPGKGLEWVATISDGGSYTYYPDSVKGRFTISRDNSKNTLFLQMDSLRPEDTGVYFCARGYYRYEGAMDYWGQGTPVTVSSGSTGGGGSTEFMEESPVASQSKAEKDYDAAKKDAKNAKKAVEDAQKALDDAKAAQKKYDEDQKKTEEKAALEKAASEEMDKAVAAVQQAYLAYQQATDKAAKDAADKMIDEAKKREEEAKTKFNTVRAMVVPEPEQLAETKKKSEEAKQKAPELTKKLEEAKAKLEEAEKKATEAKQKVDAEEVAPQAKIAELENQVHRLEQELKEIDESESEDYAKEGFRAPLQSKLDAKKAKLSKLEELSDKIDELDAEIAKLEDQLKAAEENNNVEDYFKEGLEKTIAAKKAELEKTEADLKKAVNEPEKPAPAPETPAPELEHHHHHH
notes: Single-chain fusion: three humanized 22 (H22) anti-human FcγRI VL-VH scFv units, then PspA (S. pneumoniae strain Rx1) and a His tag; Tested as unpurified supernatant of transfected NSO cells; also called Trivalent Anti-FcγRI-PspA; Construct B
binding result [1]: binds
binding result [2]: binds

Reference: patent US20170035878A1 (ALBANY MEDICAL COLLEGE, published 2017)
